Test results from article PMC8007706, “Structural and functional analysis of LIM domain-dependent recruitment of paxillin to αvβ3 integrin-positive focal adhesions” (Communications Biology, 2021).

Tests used:
[1] = target: T1, His-tagged talin-head (talin 1–405 aa), N-tagged version (UniProt P26039 1-405); assay: BLI; Octet RED384; biotinylated MBP-LIMs immobilised on streptavidin sensor (biocytin quench); His-tagged talin head in solution at 20, 80, 320, 1250 and 5000 nM; PBS with 1% BSA, 0.1% Tween-20, 0.05% sodium azide; 27 °C, 1000 rpm; biotinylated free MBP sensor subtracted; apparent affinity; conditions: both partners purified
T1 construct: talin 1, residues 1–405 (head domain); also called TH; N-tagged talin; not shown: His tag, N-terminal, kept
T1 sequence (P26039 1-405): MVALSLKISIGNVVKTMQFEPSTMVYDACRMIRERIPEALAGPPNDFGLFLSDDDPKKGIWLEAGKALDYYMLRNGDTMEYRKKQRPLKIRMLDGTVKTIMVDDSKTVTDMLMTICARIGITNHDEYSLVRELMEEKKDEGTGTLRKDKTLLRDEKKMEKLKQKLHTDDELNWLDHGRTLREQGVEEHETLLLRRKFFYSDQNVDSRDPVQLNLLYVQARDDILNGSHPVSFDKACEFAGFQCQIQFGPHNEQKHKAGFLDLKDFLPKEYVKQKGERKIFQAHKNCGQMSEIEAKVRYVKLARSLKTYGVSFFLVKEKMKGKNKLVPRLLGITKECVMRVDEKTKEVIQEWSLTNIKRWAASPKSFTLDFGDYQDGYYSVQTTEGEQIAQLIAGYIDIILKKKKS

[2] = target: T2, His-tagged talin-head (talin 1–405 aa), C-tagged version (UniProt P26039 1-405); assay: as above; conditions: both partners purified
T2 construct: talin 1, residues 1–405 (head domain); also called TH; C-tagged talin; not shown: His tag, C-terminal, kept
T2 sequence (P26039 1-405): as above

B1: biotinylated MBP-LIMs (domain or fragment, human, UniProt P49023-2 317-557, looked up)
chain: ATVAKGVCGACKKPIAGQVVTAMGKTWHPEHFVCTHCQEEIGSRNFFERDGQPYCEKDYHNLFSPRCYYCNGPILDKVVTALDRTWHPEHFFCAQCGAFFGPEGFHEKDGKAYCRKDYFDMFAPKCGGCARAILENYISALNTLWHPECFVCRECFTPFVNGSFFEHDGQPYCEVHYHERRGSLCSGCQKPITGRCITAMAKKFHPEHFVCAFCLKQLNKGTFKEQNDKPYCQNCFLKLFC
modifications: biotin (EZ-Link NHS-PEG4-Biotin)
notes: paxillin LIM1-LIM4, human paxillin α; limits as told for the LIMs construct (from residue 317), the MBP constructs being 'analogously produced'; numbered according to P49023-2; also called MBP-tagged and biotinylated LIM domains (LIMs)
- Kd [1]: 0.72 µM
- Kd [2]: 0.77 µM
